Earlier results as cited in paper PMC3008546.

Biological target: DNA ligase IV BRCT (Homo sapiens) (UniProt P49917)
Sequence (P49917 654-911): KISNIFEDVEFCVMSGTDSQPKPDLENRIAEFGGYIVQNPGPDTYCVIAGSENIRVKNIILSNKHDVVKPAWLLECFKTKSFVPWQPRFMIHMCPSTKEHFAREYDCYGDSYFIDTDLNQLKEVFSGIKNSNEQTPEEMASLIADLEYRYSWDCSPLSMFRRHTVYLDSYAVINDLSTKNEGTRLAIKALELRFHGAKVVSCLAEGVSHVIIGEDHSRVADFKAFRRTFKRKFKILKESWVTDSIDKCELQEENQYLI

Sequence of XRCC4 (Q13426 266-336): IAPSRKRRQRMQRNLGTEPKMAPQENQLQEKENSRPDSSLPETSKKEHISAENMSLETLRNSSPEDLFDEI

Kd: 1 nM
Substance: XRCC4 (from UniProt Q13426)
